In assay [1] the test system is Ero1α-null platelets. Put plainly: Platelet aggregation, Ero1α-null platelets. Format: cell-based, mouse. Particulars: 50 μg/mL protein, 0.025 U/mL thrombin. The procedure:
FIG. 7(A-L) is an exemplary embodiment of crucial intracellular ERO1α (endoplasmic reticulum oxidoreductase 1a) for platelet activation, aggregation, and thrombus formation in accordance with the present disclosure. FIG. 7A: Ex vivo platelet thrombus formation in a flow chamber assay. Adherent and aggregated platelets were stained with rhodamine-conjugated phalloidin and imaged by confocal microscopy. Representative images (bar, 10 μm). Surface coverage and thrombus volume were measured (mean±SD, n=4). FIG. 7(B-E): Aggregation and ATP secretion of wild type (WT) and Ero1α-null platelets were induced by 0.025 U/mL thrombin, 0.05 μg/mL CRP (collagen-related peptide), 0.5 μM A23187, or 2.5 μM ADP. […] Quantification graphs of aggregation and ATP secretion are presented as the mean±SD (n=3-4). FIG. 7G and FIG. 7H: P-selectin exposure and αIIbβ3 integrin activation of WT and Ero1α-null platelets were analyzed by flow cytometry. The data are presented as the geometric mean fluorescence intensity (MFI) value (mean±SD, n=3-4). […] P values determined by unpaired Student t test (FIG. 7(A-E) and FIG. 7(G-1)), ANOVA and Dunnett test (FIG. 7F), or Mann-Whitney U test (FIG. 7K and FIG. 7L). […]
FIG. 10(A-E) is an exemplary embodiment of 15E9 not affecting platelet activation and aggregation in accordance with the present disclosure. […] P values determined by unpaired Student's t-test (vs. mIgG1). […]

In assay [2] the test system is Ero1α KO mice. In words: Intravital microscopy, laser-induced cremaster arteriolar injury, rescue in Ero1α KO mice. Format: in vivo, mouse. Particulars: 4 μg/g BW into Ero1α KO mice. The protocol: FIG. 2 (A-C): DyLight 649-conjugated anti-CD42c and Alexa 488-conjugated rabbit IgG or polyclonal anti-ERO1α antibodies (0.3 μg/g body weight [BW]) were injected into wild type (WT) mice for intravital microscopy. Platelet accumulation and extracellular Ero1α were detected at the site of laser-induced cremaster arteriolar injury. FIG. 2A: Representative images. FIG. 2B and FIG. 2C: The median integrated fluorescence intensities of anti-CD42c (F platelet) and anti-ERO1α antibodies (F Ero1α; n=41-43 arterioles in 6 WT mice per group). FIG. 2(D-F): Intravital microscopy with WT control and Ero1α conditional knockout (CKO) and knockout (KO) mice. After laser-induced cremaster arteriolar injury, platelet accumulation and fibrin generation were detected by injection of DyLight 649-conjugated anti-CD42c and Alexa 488-conjugated anti-fibrin antibodies, respectively. FIG. 2D: Representative images. FIG. 2E and FIG. 2F: The median integrated fluorescence intensities of anti-CD42c (F platelet) and anti-fibrin (F fibrin) antibodies (n=36-44 arterioles in 6 mice per group). Quantification of the antibody signal at a different time point after laser injury. FIG. 2G and FIG. 2H: Ero1α KO mice were treated with recombinant wtERO1α or mutant ERO1α (m ERO1a) (Cys94Ser), 4 μg/g BW. After laser injury, platelets and fibrin were detected as described above (n=36-38 arterioles in 6 mice per group). FIG. 2I: The time to occlusion (TTO) was measured by a Doppler blood flow meter in WT control, Ero1α CKO/KO, and β3 KO mice after the application of 6.5% FeCl3 to a carotid artery (n=8-11 mice per group). FIG. 2J and FIG. 2K: After amputating the tail tip (5 mm), tail bleeding times and hemoglobin (Hb) contents were measured in WT control, Ero1α CKO/KO, and β3 KO mice (n=8-9 mice per group). Bars represent the median value. P values were determined by Mann-Whitney U test (FIG. 2E, FIG. 2F, and FIG. 2(1-K)) or ANOVA and Dunn test (FIG. 2G and FIG. 2H).
Intravital microscopy was performed in a mouse model of laser-induced cremaster arteriolar injury as previously described. WT (C57BL/6), littermate WT control, and CKO and KO male mice (8-10 weeks old) were anesthetized with intraperitoneal injection of ketamine and xylazine. The cremaster muscle was exteriorized and superfused with 37° C. bicarbonate-buffered saline throughout the experiment. Arteriolar wall injury was induced by laser ablation (Photonics Instruments) as previously described. Multiple thrombi were generated in at least 3 to 4 different arterioles of 1 mouse, with new thrombi formed upstream of earlier thrombi to minimize any contribution from thrombi generated earlier in the mouse. […]

From US20240366624A1, “METHODS AND COMPOSITIONS FOR TREATING THROMBOTIC DISEASE” (Washington University, priority 2023, published 2024) come the findings set out here.

B1: wtERO1α: recombinant wild-type ERO1α (protein)
chain: EEQPPETAAQRCFCQVSGYLDDCTCDVETIDRFNNYRLFPRLQKLLESDYFRYYKVNLKRPCPFWNDISQCGRRDCAVKPCQSDEVPDGIKSASYKYSEEANNLIEECEQAERLGAVDESLSEETQKAVLQWTKHDDSSDNFCEADDIQSPEAEYVDLLLNPERYTGYKGPDAWKIWNVIYEENCFKPQTIKRPLNPLASGQGTSEENTFYSWLEGLCVEKRAFYRLISGLHASINVHLSARYLLQETWLEKKWGHNITEFQQRFDGILTEGEGPRRLKNLYFLYLIELRALSKVLPFFERPDFQLFTGNKIQDEENKMLLLEILHEIKSFPLHFDENSFFAGDKKEAHKLKEDFRLHFRNISRIMDCVGCFKCRLWGKLQTQGLGTALKILFSEKLIANMPESGPSYEFHLTRQEIVSLFNAFGRISTSVKELENFRNLLQNIH
As to B1, the “rescue of the defect in Ero1α-null platelet aggregation” value in assay [1] was “did not rescue”. For the same molecule, in assay [2], the “rescue of fibrin generation” value is “minimal rescue effect” and the “rescue of platelet thrombus formation” value was “minimal rescue effect”.

B2: mERO1α: activity-null ERO1α-Cys94Ser (protein)
chain: EEQPPETAAQRCFCQVSGYLDDCTCDVETIDRFNNYRLFPRLQKLLESDYFRYYKVNLKRPCPFWNDISQSGRRDCAVKPCQSDEVPDGIKSASYKYSEEANNLIEECEQAERLGAVDESLSEETQKAVLQWTKHDDSSDNFCEADDIQSPEAEYVDLLLNPERYTGYKGPDAWKIWNVIYEENCFKPQTIKRPLNPLASGQGTSEENTFYSWLEGLCVEKRAFYRLISGLHASINVHLSARYLLQETWLEKKWGHNITEFQQRFDGILTEGEGPRRLKNLYFLYLIELRALSKVLPFFERPDFQLFTGNKIQDEENKMLLLEILHEIKSFPLHFDENSFFAGDKKEAHKLKEDFRLHFRNISRIMDCVGCFKCRLWGKLQTQGLGTALKILFSEKLIANMPESGPSYEFHLTRQEIVSLFNAFGRISTSVKELENFRNLLQNIH
On to B2, for which, in assay [2], the “rescue of fibrin generation” value was “did not show any effect” and the “rescue of platelet thrombus formation” value is listed as “did not show any effect”.
